These are literature values, as cited in patent US5861377A, “Antistasin type serine protease inhibitors” (Novartis AG, priority 1994, dated 1999).

The target of one data set is T1, Trypsin (Bos taurus, UniProt P00760).
T1 sequence (P00760 24-246): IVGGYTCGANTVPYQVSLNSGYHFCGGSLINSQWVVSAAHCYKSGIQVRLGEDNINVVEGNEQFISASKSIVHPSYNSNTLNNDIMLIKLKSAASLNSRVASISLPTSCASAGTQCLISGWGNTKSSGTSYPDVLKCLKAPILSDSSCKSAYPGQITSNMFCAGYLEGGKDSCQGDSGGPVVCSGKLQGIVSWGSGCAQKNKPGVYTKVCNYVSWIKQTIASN
The note with it: bovine trypsin; data from Dunwiddie et al.

Another data set addresses Factor Xa (Homo sapiens, UniProt P00742). Particulars: data from Dunwiddie et al.

Factor Xa, sequence (P00742 235-488 limits assumed): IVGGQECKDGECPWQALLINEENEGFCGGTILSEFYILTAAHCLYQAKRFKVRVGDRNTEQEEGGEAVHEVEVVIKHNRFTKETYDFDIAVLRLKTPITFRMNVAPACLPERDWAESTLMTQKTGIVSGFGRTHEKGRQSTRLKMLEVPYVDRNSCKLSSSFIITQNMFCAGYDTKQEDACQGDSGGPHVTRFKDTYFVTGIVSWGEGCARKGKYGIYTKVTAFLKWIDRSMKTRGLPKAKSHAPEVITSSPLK
Factor Xa, sequence (P00742 41-179 partner limits assumed): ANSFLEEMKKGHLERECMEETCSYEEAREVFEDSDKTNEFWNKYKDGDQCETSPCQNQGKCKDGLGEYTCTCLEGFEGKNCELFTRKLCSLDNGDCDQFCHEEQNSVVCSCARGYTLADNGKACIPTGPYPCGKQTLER

B1: Antistasin: cysteine-rich serine proteinase inhibitor of 119 amino acids from the Mexican leech Haementeria officinalis; factor Xa inhibitor (protein)
chain: EGPFGPGCEEAGCPEGSACNIITDRCTCSGVRCRVHCPHGFQRSRYGCEFCKCRKEPMKATCDISECPEGMMCSRKTNKCDCKIDINCRKTCPNGLKRDKGCEYCECRFKRKLIPRLS
With B1, the IC50 with Trypsin is 5 nM; with Factor Xa, 1 nM.

By IC50 is commonly meant the concentration needed to halve the response being measured.
